Assays:
[1] = target: Purified Mor1 (Example 9) (Mus musculus (Mouse)) (UniProt P42866); test: method not told at that place (Ki; presumably radioligand displacement)
[2] = target: Purified Mor1 (Example 9) (Mus musculus (Mouse)) (UniProt P42866); test: cell-based or functional assay

Sequence of Purified Mor1 (Example 9) (Mus musculus (Mouse)) (P42866 52-358, tags or fused parts left off): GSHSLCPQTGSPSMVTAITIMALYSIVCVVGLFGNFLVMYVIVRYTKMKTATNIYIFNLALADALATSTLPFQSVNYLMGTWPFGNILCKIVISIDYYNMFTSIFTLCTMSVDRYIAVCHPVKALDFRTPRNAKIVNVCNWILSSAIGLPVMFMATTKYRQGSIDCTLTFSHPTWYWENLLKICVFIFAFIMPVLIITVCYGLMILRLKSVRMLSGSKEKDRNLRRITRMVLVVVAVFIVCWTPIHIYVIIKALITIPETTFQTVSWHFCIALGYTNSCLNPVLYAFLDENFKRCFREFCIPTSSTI

B1: XA8635 (VHH)
VHH: QVQLVESGGGLVQAGGSLRLSCAASGSISSISTMGWYRQAPGNERELVAAITSGGSTNYADSVKGRFTISRDNAKNTVYLQMNSLKPEDTAVYYCNFKYYSGSYFYKSEYDYWGQGTQVTVSS
- Ki [1]: 12 nM

B2: XA8639 (VHH)
VHH: QVQLVESGGGLVRPGGSLRLSCVDSERTSYPMGWFRRAPGKEREFVASITWSGIDPTYADSVADRFTTSRDVANNTLYLQMNSLKHEDTAVYYCAARAPVGQSSSPYDYDYWGQGTQVTVSS
- enhancement of BU72 affinity for Mor1 in HDL particles [2]: 176 fold
- inhibition constant (Ki) of agonist BU72 in [3H]-diprenorphine competition on Mor1 in HDL particles, in presence of 5 µM XA8639 [2]: 0.0085 nM

Reference: patent publication US20170183404A1
